Assay results as given in patent US20240167012.

Columns and labels:
[1] = tested on: T1, aspartic protease Rhodotorulapepsin
T1 sequence: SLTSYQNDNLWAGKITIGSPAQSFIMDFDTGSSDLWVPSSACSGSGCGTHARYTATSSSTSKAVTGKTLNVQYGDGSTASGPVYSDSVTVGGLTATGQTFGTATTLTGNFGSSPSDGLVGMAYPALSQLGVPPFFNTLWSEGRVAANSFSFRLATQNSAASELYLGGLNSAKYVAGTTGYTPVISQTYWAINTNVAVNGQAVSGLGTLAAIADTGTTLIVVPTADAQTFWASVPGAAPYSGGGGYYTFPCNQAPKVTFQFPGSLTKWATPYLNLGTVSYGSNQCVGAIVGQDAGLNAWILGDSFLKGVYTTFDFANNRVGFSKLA

[2] = tested on: gliadin
[3] = tested on: T2, gluten immunogenic peptide 26-mer from γ-gliadin
T2 sequence: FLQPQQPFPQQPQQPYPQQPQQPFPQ

[4] = tested on: T3, gluten immunogenic peptide 33-mer from α-gliadin
T3 sequence: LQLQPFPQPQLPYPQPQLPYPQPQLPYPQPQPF

## pepsin
[1]
  resistance of the protease to pepsin hydrolysis, inferred from gliadin hydrolysis in the presence of pepsin: the aspartic protease Rhodotorulapepsin is resistant to pepsin hydrolysis
[2]
  hydrolysis of gliadin 7.5 mg/ml, SDS-PAGE (pH 3.0, 3 h): when only 250 µg/ml of pepsin was included in the enzyme mixture, gliadin was not completely hydrolyzed
  hydrolysis of gliadin, SDS-PAGE of residual gliadin (pH 3.0, 37° C., enzyme:gliadin 1:500): gliadin was not hydrolyzed by pepsin even after 150 minutes of reaction
  relative activity to hydrolyze gliadin, ELISA of residual gliadin (pH 2.5, 1.5 h, pepsin 1 mg/ml): the relative activity of the simulated gastric acid environment to hydrolyze gliadin is 13%
[3]
  hydrolysis of the 26-mer, RP-HPLC (pH 3.0 and pH 5.0): gluten immunogenic peptides 26-mer and 33-mer were not degraded after the same reaction time
[4]
  hydrolysis of the 33-mer, RP-HPLC (pH 3.0 and pH 5.0): gluten immunogenic peptides 26-mer and 33-mer were not degraded after the same reaction time
